From paper PMC11912836, “Msh2-Msh3 DNA-binding is not sufficient to promote trinucleotide repeat expansions in Saccharomyces cerevisiae”

Experiments:
[1] = biological target: Msh2-msh6(3MBD) (Saccharomyces cerevisiae) (UniProt P25847+Q03834); experiment: BLI; details: BLI: 25 mM Tris-HCl pH 7.5, 1 mM EDTA, 100 mM NaCl, 0.1 mg/mL BSA, 1 mM DTT, 0.05% Tween-20; DNA 7.5 nM (30 nM for Msh2-Msh6); temperature not stated; no …
[2] = biological target: Msh2-Msh6 (Saccharomyces cerevisiae, UniProt P25847;Q03834 1-964;1-1242); experiment: BLI; BLI: 25 mM Tris-HCl pH 7.5, 1 mM EDTA, 100 mM NaCl, 0.1 mg/mL BSA, 1 mM DTT, 0.05% Tween-20; DNA 7.5 nM (30 nM for Msh2-Msh6); temperature not stated; no nucleotide or Mg2+ listed; details: protein: recombinant, copies: 1;1, label: 5' biotin on bottom strand
[3] = biological target: Msh2-Msh3 (Saccharomyces cerevisiae, UniProt P25847;P25336 1-964;1-1018); experiment: as above; details: protein: recombinant, copies: 1;1, label: 5' biotin on bottom strand
[4] = as printed, bottom strand has 1 extra nt (T opposite missing A after CTAGG of top; possible misprint), described as homoduplex
[5] = blunt, 8-nt extrahelical loop in top strand
[6] = blunt, extrahelical (CTG)10 quasi-hairpin in top strand
[7] = blunt, extrahelical (CAG)10 quasi-hairpin in top strand

Sequence of Msh2-msh6(3MBD) (Saccharomyces cerevisiae) (P25847 whole entry, chain 1 of 2): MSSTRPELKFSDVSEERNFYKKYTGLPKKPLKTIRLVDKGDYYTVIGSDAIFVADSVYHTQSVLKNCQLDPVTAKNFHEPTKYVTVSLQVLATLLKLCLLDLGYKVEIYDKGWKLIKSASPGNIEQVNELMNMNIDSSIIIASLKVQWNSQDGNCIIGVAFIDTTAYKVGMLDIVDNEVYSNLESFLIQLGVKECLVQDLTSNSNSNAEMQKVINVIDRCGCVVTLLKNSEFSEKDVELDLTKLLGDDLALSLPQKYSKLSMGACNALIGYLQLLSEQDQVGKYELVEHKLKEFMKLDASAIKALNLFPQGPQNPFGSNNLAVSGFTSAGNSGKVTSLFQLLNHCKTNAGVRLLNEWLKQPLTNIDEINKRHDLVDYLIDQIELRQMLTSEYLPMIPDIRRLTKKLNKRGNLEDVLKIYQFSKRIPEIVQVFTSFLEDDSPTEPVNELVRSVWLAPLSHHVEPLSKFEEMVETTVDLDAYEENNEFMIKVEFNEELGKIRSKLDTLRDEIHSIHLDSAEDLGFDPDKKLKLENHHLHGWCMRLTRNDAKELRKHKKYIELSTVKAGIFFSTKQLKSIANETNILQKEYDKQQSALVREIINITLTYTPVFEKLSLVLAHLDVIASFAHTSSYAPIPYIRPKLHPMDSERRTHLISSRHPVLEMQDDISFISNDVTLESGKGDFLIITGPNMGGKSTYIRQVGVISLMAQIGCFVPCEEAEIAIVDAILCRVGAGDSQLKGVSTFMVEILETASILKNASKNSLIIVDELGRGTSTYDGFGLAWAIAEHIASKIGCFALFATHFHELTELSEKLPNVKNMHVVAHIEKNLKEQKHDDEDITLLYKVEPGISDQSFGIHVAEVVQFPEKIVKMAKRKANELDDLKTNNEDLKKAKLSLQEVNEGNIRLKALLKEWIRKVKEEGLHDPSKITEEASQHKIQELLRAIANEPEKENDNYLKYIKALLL
Sequence of Msh2-msh6(3MBD) (Saccharomyces cerevisiae) (Q03834 whole entry, chain 2 of 2): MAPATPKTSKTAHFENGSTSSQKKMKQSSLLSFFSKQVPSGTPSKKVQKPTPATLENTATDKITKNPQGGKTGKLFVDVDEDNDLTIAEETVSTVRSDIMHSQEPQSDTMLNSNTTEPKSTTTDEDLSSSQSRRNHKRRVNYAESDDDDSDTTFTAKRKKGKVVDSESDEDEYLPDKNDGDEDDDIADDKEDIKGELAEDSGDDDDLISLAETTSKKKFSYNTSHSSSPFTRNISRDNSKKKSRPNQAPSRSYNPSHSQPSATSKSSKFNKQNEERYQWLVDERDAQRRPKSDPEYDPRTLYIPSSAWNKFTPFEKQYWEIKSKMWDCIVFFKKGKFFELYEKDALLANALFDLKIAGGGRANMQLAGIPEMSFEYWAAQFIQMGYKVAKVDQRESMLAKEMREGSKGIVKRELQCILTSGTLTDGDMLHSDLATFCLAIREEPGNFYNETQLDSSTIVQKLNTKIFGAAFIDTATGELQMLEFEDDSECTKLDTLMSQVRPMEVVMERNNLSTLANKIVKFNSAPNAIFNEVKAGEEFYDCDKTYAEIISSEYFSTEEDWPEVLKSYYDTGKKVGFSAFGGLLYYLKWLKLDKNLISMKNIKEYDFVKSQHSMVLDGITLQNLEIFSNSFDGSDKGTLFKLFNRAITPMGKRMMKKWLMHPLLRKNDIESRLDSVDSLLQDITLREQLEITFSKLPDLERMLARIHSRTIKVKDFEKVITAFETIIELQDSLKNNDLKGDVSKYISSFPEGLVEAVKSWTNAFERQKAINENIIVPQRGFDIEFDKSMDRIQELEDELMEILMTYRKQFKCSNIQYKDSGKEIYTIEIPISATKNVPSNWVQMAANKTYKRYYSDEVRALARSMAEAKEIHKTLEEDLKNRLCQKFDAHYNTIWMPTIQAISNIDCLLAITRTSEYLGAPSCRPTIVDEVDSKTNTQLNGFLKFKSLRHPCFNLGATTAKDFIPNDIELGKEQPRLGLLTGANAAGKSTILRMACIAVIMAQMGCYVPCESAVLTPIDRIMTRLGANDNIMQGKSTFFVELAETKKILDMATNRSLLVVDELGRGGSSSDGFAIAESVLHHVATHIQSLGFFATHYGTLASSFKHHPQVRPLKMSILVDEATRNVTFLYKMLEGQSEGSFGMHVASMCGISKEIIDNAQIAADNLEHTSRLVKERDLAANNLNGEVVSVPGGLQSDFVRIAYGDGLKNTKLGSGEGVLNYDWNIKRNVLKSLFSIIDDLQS
Sequence of Msh2-Msh3 (P25847 whole entry, chain 1 of 2): as the sequence (P25847 whole entry, chain 1 of 2) above
Sequence of Msh2-Msh3 (P25336 whole entry, chain 2 of 2): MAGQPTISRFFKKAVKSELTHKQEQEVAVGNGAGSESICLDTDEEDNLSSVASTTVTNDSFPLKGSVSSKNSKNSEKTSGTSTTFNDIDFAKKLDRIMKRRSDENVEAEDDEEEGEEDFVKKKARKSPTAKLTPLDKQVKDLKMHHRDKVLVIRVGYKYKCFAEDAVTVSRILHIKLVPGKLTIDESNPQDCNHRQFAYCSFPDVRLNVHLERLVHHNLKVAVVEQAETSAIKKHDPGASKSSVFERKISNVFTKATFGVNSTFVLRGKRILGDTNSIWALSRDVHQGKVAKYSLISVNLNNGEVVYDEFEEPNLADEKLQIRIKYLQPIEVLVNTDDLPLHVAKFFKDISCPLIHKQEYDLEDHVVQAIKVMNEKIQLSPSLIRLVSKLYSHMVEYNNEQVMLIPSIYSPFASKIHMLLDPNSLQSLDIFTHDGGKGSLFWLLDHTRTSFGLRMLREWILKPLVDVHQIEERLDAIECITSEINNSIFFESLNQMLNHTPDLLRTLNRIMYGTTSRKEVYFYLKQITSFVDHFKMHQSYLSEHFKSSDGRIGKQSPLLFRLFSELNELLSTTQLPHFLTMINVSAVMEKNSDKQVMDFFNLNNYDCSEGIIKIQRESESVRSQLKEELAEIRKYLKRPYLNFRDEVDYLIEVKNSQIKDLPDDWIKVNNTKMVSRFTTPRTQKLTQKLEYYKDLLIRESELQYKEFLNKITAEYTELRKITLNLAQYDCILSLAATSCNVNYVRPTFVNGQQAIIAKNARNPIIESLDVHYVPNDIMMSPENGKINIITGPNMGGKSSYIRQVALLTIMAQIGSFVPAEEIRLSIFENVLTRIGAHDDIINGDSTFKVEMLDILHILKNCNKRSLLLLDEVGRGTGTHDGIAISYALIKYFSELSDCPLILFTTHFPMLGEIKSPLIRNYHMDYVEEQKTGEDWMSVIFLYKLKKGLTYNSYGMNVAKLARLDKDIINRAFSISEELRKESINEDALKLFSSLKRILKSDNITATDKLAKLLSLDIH
Sequence of Msh2-Msh6 (P25847 whole entry, chain 1 of 2): as the sequence (P25847 whole entry, chain 1 of 2) above
Sequence of Msh2-Msh6 (Q03834 whole entry, chain 2 of 2): as the sequence (Q03834 whole entry, chain 2 of 2) above

**Q.** “CACGCTACCGAATTCTGACTTGCTAGCTGCTGCTGCTGCTGCTGCTGCTGCTGCTGGACATCTTTGCCCACGTTGACCC / GGGTCAACGTGGGCAAAGATGTCCTAGCAAGTCAGAATTCGGTAGCGTG [(CTG)10 (LS-CTG/LS2-Bio)]” was tested. Which Kd [1] did it give?
**A.** Its Kd is 1.05 nM.

**Q.** With “CACGCTACCGAATTCTGACTTGCTAGCAGCAGCAGCAGCAGCAGCAGCAGCAGCAGGACATCTTTGCCCACGTTGACCC / GGGTCAACGTGGGCAAAGATGTCCTAGCAAGTCAGAATTCGGTAGCGTG [(CAG)10 (LS-CAG/LS2-Bio)]” as the molecule, how does the Kd [1] read?
**A.** Its Kd is 2.37 nM.

**Q.** For “CACGCTACCGAATTCTGACTTGCTAGGTGTGTGTGACATCTTTGCCCACGTTGACCC / GGGTCAACGTGGGCAAAGATGTCCTAGCAAGTCAGAATTCGGTAGCGTG [+8 loop, (GT)4 (LS8/LS2-Bio)]”, which Kd [1] is on record?
**A.** The Kd was 0.872 nM.

**Q.** Which Kd [1] does the source give for “CACGCTACCGAATTCTGACTTGCTAGGCATCTTTGCCCACGTTGACCC / GGGTCAACGTGGGCAAAGATGTCCTAGCAAGTCAGAATTCGGTAGCGTG [Homoduplex (LS1/LS2-Bio)]” here?
**A.** Its Kd is 7.16 nM.

B1: Homoduplex (LS1/LS2-Bio) (dsDNA)
DNA 1: CACGCTACCGAATTCTGACTTGCTAGGCATCTTTGCCCACGTTGACCC
DNA 2: GGGTCAACGTGGGCAAAGATGTCCTAGCAAGTCAGAATTCGGTAGCGTG
**Q.** Which Kd [2, 4] does the source give for B1 here?
**A.** Its Kd is 21 nM.

**Q.** What about the Kd [3, 4] of the same molecule?
**A.** Its Kd is 9.22 nM.

B2: +8 loop, (GT)4 (LS8/LS2-Bio) (dsDNA)
DNA 1: CACGCTACCGAATTCTGACTTGCTAGGTGTGTGTGACATCTTTGCCCACGTTGACCC
DNA 2: B1 DNA 2
**Q.** With B2 as the molecule, how does the Kd [2, 5] read?
**A.** The Kd was 8.67 nM.

**Q.** What about the Kd [3, 5] of the same molecule?
**A.** Its Kd is 2.62 nM.

B3: (CTG)10 (LS-CTG/LS2-Bio) (dsDNA)
DNA 1: CACGCTACCGAATTCTGACTTGCTAGCTGCTGCTGCTGCTGCTGCTGCTGCTGCTGGACATCTTTGCCCACGTTGACCC
DNA 2: B1 DNA 2
**Q.** With B3 as the molecule, how does the Kd [2, 6] read?
**A.** Its Kd is 3.07 nM.

**Q.** And the Kd [3, 6]?
**A.** The Kd was 2.25 nM.

B4: (CAG)10 (LS-CAG/LS2-Bio) (dsDNA)
DNA 1: CACGCTACCGAATTCTGACTTGCTAGCAGCAGCAGCAGCAGCAGCAGCAGCAGCAGGACATCTTTGCCCACGTTGACCC
DNA 2: B1 DNA 2
**Q.** How did the Kd [2, 7] turn out when B4 was run?
**A.** Its Kd is 2.73 nM.

**Q.** And the Kd [3, 7]?
**A.** The Kd was 1.38 nM.
